Molecular target: MdWRKY17 (Malus x domestica, UniProt A0A9E6GT21 1-512)
Assay: EMSA; Chemiluminescent EMSA Kit (Beyotime); buffer, salt, pH and temperature not stated
Settings: protein: recombinant; tags: His (pET32a); label: biotin; blunt

Sequence of MdWRKY17 (A0A9E6GT21 entry or part of it): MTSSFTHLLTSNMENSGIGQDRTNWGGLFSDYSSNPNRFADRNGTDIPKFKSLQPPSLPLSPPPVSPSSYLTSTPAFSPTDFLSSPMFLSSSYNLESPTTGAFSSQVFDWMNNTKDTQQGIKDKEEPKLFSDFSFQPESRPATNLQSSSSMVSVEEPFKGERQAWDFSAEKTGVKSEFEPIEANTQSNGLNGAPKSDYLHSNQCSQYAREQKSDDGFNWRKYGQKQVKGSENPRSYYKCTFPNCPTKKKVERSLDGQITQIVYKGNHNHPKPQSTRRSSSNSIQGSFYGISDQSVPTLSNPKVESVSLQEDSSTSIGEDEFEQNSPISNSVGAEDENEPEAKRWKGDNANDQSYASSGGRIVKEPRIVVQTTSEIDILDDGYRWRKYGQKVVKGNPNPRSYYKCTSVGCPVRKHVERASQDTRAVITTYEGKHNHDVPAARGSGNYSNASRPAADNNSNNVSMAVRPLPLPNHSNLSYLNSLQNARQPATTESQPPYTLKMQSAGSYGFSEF

Binder | binding result
MdDMR6 probe (dsDNA) DNA 1: ATATTGTTTTCTGCATTTTTGACTTAATTTTTATAAATTAA DNA 2: TTAATTTATAAAAATTAAGTCAAAAATGCAGAAAACAATAT | binds
MdPL-like-P3 probe (dsDNA) DNA 1: AGTTGACCATTGACCGTTGACTGAGTCAACAGTCAAGGTCAACT DNA 2: AGTTGACCTTGACTGTTGACTCAGTCAACGGTCAATGGTCAACT | binds
MdPL-like-P1 probe (dsDNA) DNA 1: AGGAGTACCTTTGGTCAAACTATATTCAAA DNA 2: TTTGAATATAGTTTGACCAAAGGTACTCCT | binds
MdPL-like-P2 probe (dsDNA) DNA 1: AAGTCAACTAAAAAAGTCAACGTCTGACCGTTGACTGGTCAAAG DNA 2: CTTTGACCAGTCAACGGTCAGACGTTGACTTTTTTAGTTGACTT | binds
